What was measured:
[1] = molecular target: E. coli ClpP (residues 1-193 of mature ClpP), tag removed, used for cryo-EM (Escherichia coli); assay: cryo-EM structure; ClpX^∆N pseudohexamer 4 µM and ClpP14 1.8 µM (2 µM in the results) in EM buffer (20 mM HEPES, pH 7.5, 100 mM KCl, 25 mM MgCl2, 5 mM ATPγS), 5 min at 25°C before vitrification; doubly capped complexes analysed
[2] = molecular target: [RKH2-AAA]2 single-chain ClpX^ΔN pseudohexamer (Escherichia coli) (UniProt P0A6H1)

Substance | stoichiometry N [1] | KM for steady-state degradation of ^CP7GFP-ssrA, against the parent pseudohexamer [2] [fold]
E. coli ClpP (residues 1-193 of mature ClpP), tag removed, used for cryo-EM (enzyme) | 14 | –
^cp7GFP-ssrA | – | 3
